Source: the supplement of paper PMC10567573

B1: PLAGL1 (parent)
chain: EKPPSGTKEKKHQCDHCERCFYTR

Variants of: B1
Test: protein stability index of a GFP-peptide fusion (GPS, HEK-293T) (PSI 1-6); higher = more stable
Conditions: c terminus: a fixed tail appended
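Note: lentivirally expressed fusions sorted by FACS into six bins by GFP to DsRed ratio, PSI derived from sequencing read proportions per bin multiplied by bin number.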

Protein stability index: each site, then its substitutions
H12: D 3.09; T 3.24; C 4.59; K 3.55; P 2.2; I 2.6; M 2.28; E 3.04; V 1.99; F 2.39; L 2.55; W 1.89; G 2.42; A 2.44; R 2.17; S 2.88; Y 2.15; Q 3.23; N 2.52
C20: R 1.98; W 2.35; I 2.68; Q 2.37; L 2.95; A 2.48; S 1.74; V 3.06; K 3.58; N 2.6; F 2.56; D 2.59; P 3.07; G 2.5; T 3.04; H 2.58; E 3.37; M 2.23; Y 2.66
P4: W 2.96; V 3.19; Y 3.41
E18: W 3.41; H 3.33; M 2.6; P 4.7; Y 2.92; Q 2.45; V 4.66; S 2.42; A 3.18; K 2.58; T 3.62; F 2.61; L 2.87; I 2.63; G 3.22; C 2.69; N 2.94; D 3.12; R 2.79
Y22: F 3.35; D 4.58; L 4.35; I 4.17; A 4.25; G 4.03; E 4.67; M 4.37; H 4.13; K 4.45; C 4.84
K10: Y 3.81; F 3.42; I 3.77; G 3.91; D 4.05; E 4.42; R 3.43; S 3.96; T 3.78; C 4.3; Q 3.53; M 3.76; V 3.9; W 3.55; L 4.04; A 3.87; P 4.16; N 3.76; H 4.05
F21: A 4.06; M 4.75; G 4.32; L 4.08; I 4.52; C 3.88; N 4.33; K 4.39; H 3.51; Q 5.02; D 4.34; P 3.75; T 4.26; R 4.15; V 3.95; S 4.22; E 4.11; Y 4.37
K11: M 4.04; A 3.73; D 4.99; Q 4.28; L 3.97; Y 3.81; R 3.71; H 4.06; G 4.29; W 4.32; I 3.71; E 4.6; N 3.63; V 3.86; S 3.79; T 3.84; P 3.59; F 3.67
K8: T 3.48; M 4.27; Y 3.47; P 4.25; E 4.4; G 3.29; W 3.35; A 3.37; L 3.04; Q 4.78; I 3.1; C 4.24; R 3.48; V 3.9; N 3.77; H 3.88; S 3.66; F 2.9; D 4.33
Q13: V 3.17; H 3.28; W 2.8; M 3.55; G 2.34; T 3.29; I 3.21; P 2.52; R 2.77; A 3.4; K 3.67; D 4.33; E 4.31; C 3.19; F 3.2; N 3.74; Y 2.73; L 3.26; S 3.25
E9: A 3.67; I 3.27; V 3.37; P 3.52; G 3.75; Y 2.6; N 3.25; R 2.52; M 2.85; C 4.63; H 3.37; L 3; K 2.9; D 3.96; Q 3.77; S 3.32; T 3.51; W 3.08; F 3.26
C17: Q 3.9; A 3.71; L 4; F 3.4; G 3.43; I 3.49; D 3.97; K 4.07; R 3.15; T 3.48; E 3.69; S 3.63; P 4.33; V 4.05; W 3.13; Y 3.15; N 3.76; H 3.67; M 3.63
H16: D 4.02; I 2.76; V 3.08; G 4.67; K 4.02; P 3.94; R 3.49; C 2.52; A 4.15; T 3.66; S 4.13; E 4.17; L 3.51; N 4.72; Q 3.82; M 3.66; Y 2.59; W 2.9; F 3.5
T7: S 3.54; W 3.17; V 4.06; A 3.44; L 3.67; F 3.91; Y 3.27; H 3.85; Q 3.82; C 4.29; G 3.69; K 3.28; M 3.56; E 3.79; P 3.74; D 3.77; R 3.44; N 3.6; I 4.11
R19: G 3.24; V 3.39; F 3.69; T 3.52; Q 4.34; N 4.36; K 4; L 3.45; P 3.3; E 4.54; W 3.29; H 4.21; A 4.31; D 4.91; Y 3.79; I 3.52; M 3.83; S 3.9; C 3.3
S5: M 3.48; F 3.19; L 3.75; D 4.16; I 3.97; T 3.34; V 3.83; H 3.83; W 3.1; Q 3.42; N 3.79; C 3.72; A 3.17; P 3.54; Y 3.57; K 3.88; R 3.29; G 3.53; E 3.72
D15: P 2.25; S 3.29; I 2.55; Q 2.7; L 2.91; H 2.9; W 3.15; K 3.33; R 2.2; F 2.79; N 3.23; G 4.38; Y 2.97; V 2.68; M 2.63; E 3.18; T 3.37; A 3.75
C14: W 3.4; I 3.73; H 3.57; P 4.03; N 3.71; Y 3.56; G 3.96; F 3.81; S 4.02; K 4.08; D 4.14; Q 4.06; A 3.97; V 4.55; R 3.97; L 4.19; M 4.11; T 3.8; E 4.84
G6: F 3.79; W 3.13; P 4.37; Y 2.92; R 3.07; D 3.88; L 3.92; V 4; A 3.32; C 4.57; M 3.39; H 3.68; E 4.09; N 3.36; I 3.17; K 3.52; T 4.61; S 3.27; Q 3.16
